According to US20180339041A1 (Kyowa Kirin, published 2018):

What was measured:
[1] = target: T1, hGas6-FH-L314A, Q315A, P316A (alanine substitution variant) (human, UniProt Q14393 1-678); assay: ELISA, variant captured by anti-FLAG, biotinylated antibody
T1 construct: Limits of the deletion derived as for hGas6-FH; also called alanine variant
T1 chain: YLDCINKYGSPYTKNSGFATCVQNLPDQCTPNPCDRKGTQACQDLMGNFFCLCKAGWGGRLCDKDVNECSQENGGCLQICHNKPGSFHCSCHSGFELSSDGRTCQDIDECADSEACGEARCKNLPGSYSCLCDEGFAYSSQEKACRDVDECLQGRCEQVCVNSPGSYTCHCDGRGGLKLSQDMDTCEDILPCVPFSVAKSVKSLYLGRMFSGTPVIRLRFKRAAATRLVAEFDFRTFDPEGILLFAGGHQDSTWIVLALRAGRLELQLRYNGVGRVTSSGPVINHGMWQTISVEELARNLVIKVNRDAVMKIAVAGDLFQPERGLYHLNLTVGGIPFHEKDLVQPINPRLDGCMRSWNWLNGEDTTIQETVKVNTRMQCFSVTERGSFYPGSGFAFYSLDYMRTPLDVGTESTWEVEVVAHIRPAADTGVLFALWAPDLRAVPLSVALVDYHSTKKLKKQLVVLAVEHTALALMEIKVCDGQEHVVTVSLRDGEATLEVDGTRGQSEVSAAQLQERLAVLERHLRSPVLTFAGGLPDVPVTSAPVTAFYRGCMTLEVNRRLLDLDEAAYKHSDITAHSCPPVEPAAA
Procedure: First, 2 μg/mL anti-FLAG antibody [Monoclonal ANTI-FLAG M2 antibody produced in mouse (manufactured by Sigma-Aldrich Co. LLC) diluted with PBS (manufactured by Nacalai Tesque, Inc.)] was dispensed at 50 μL/well to a 96-well plate for ELISA (manufactured by Nalge Nunc International), and the plate was left standing overnight at 4° C. for adsorption. After removal of the immobilization solution, 1% BSA-PBS (manufactured by Nacalai Tesque, Inc.) was added thereto at 300 μL/well, and the plate was left standing at room temperature for 1 hour for blocking and washed five times with Tween 20-PBS (manufactured by Wako Pure Chemical Industries Ltd.).
Each antibody solution was dispensed thereto at 50 μL/well, and the plate was left standing at room temperature for 1 hour. This plate was washed five times with Tween 20-PBS. Then, Streptavidin HRP Conjugate (manufactured by R&D Systems, Inc.) diluted 200-fold with 1% BSA-PBS was dispensed thereto at 50 μL/well, and the plate was left standing at room temperature for 1 hour. This plate was washed five times with Tween 20-PBS, and TMB (manufactured by Sigma-Aldrich Co. LLC) was added thereto at 50 μL/well and reacted. […] The absorbance at a sample wavelength of 450 nm and a reference wavelength of 570 nm (450 nm-570 nm) was measured using a plate reader.

[2] = target: T2, human protein S (derived from human serum; Enzyme Research Laboratories) (human, UniProt P07225 42-676); assay: ELISA: human protein S coated directly on the plate (2 µg/mL); biotinylated test antibody; streptavidin-HRP/TMB (Example 6, method of Example 5(5)) [F]
T2 construct: Homologue of Gas6 used as specificity control
T2 sequence (looked up): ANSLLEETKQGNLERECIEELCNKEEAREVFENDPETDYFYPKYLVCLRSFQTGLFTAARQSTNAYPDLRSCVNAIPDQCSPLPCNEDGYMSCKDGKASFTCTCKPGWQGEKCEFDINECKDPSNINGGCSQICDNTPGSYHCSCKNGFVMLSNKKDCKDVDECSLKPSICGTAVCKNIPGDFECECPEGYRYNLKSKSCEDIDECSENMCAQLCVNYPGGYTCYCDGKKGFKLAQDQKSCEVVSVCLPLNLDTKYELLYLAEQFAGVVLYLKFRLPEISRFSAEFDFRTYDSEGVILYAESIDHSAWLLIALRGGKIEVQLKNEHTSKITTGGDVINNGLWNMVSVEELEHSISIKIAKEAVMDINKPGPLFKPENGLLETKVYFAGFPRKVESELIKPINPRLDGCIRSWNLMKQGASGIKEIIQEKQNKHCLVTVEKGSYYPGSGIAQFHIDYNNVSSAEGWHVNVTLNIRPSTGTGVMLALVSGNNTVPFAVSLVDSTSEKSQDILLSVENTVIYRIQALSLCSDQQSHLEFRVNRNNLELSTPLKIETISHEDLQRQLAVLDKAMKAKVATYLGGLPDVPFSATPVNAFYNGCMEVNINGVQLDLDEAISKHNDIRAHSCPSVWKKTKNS
Procedure: First, a 2 μg/mL solution of the antigen (prepared from each antigen with PBS (manufactured by Nacalai Tesque, Inc.)) was dispensed at 50 μL/well to a 96-well plate for ELISA (manufactured by Nalge Nunc International), and the plate was left standing overnight at 4° C. for adsorption. The plate was washed five times with Tween 20-PBS. Then, 1% BSA-PBS (manufactured by Nacalai Tesque, Inc.) was added thereto at 300 μL/well, and the plate was left standing at room temperature for 1 hour for blocking and washed five times with Tween 20-PBS (manufactured by Wako Pure Chemical Industries Ltd.). Next, the hybridoma culture supernatant was dispensed thereto as a test substance at 50 μL/well, and the plate was left standing at room temperature for 1 hour and then washed five times with Tween 20-PBS. Next, polyclonal goat anti-mouse immunoglobulins/HRP (Dako Denmark A/S, P0447) diluted 2000-fold with 1% BSA-PBS was dispensed thereto at 50 μL/well, and the plate was left standing at room temperature for 1 hour. The plate was washed five times with Tween 20-PBS, and TMB (manufactured by Sigma-Aldrich Co. LLC) was added thereto at 50 μL/well and reacted. At an appropriate point in time, the reaction was terminated by the addition of 1 N hydrochloric acid (manufactured by Wako Pure Chemical Industries Ltd.) at 50 μL/well. The absorbance at a sample wavelength of 450 nm and a reference wavelength of 570 nm (450 nm-570 nm) was measured using a plate reader (Spectra Max, manufactured by Molecular Devices, LLC).
The binding activity of the obtained antibodies against human protein S was measured in the same way as in Example 5(5). […] The secondary detection reagent used was Streptavidin HRP Conjugate (manufactured by R&D Systems, Inc.) diluted 200-fold with 1% BSA-PBS.

[3] = target: T3, C-terminally FLAG-tagged human Gas6 recombinant protein (hGas6-F) (human, UniProt Q14393 31-678, gamma-carboxylated glutamic acid residues in the Gla domain (producer cells co-express rat VKOR and human GGCX); positions not given); assay: ELISA, Gas6-F captured by anti-FLAG, biotinylated antibody
T3 construct: also called human Gas6-F; human Gas6 protein
T3 sequence: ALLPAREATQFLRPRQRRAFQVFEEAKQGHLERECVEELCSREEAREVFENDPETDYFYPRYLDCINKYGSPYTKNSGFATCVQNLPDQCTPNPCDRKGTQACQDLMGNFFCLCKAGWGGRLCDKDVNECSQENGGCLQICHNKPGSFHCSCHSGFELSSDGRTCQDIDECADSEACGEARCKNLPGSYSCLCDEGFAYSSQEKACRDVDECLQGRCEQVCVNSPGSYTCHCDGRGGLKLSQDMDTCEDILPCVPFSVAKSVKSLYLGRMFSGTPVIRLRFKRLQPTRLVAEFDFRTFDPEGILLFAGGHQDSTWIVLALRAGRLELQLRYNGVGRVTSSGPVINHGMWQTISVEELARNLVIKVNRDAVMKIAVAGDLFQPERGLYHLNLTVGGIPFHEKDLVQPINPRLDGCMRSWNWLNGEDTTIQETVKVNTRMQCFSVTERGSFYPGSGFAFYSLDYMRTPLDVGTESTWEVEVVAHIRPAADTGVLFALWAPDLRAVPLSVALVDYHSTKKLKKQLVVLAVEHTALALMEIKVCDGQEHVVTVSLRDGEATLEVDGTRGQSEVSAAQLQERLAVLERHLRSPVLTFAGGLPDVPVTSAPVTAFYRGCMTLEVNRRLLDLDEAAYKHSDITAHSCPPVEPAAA
Procedure: After removal of the immobilization solution, 1% BSA-PBS (manufactured by Nacalai Tesque, Inc.) was added thereto at 300 μL/well, and the plate was left standing at room temperature for 1 hour for blocking and washed five times with Tween 20-PBS (manufactured by Wako Pure Chemical Industries Ltd.).
Each antibody solution was dispensed thereto at 50 μL/well, and the plate was left standing at room temperature for 1 hour. This plate was washed five times with Tween 20-PBS. Then, Streptavidin HRP Conjugate (manufactured by R&D Systems, Inc.) diluted 200-fold with 1% BSA-PBS was dispensed thereto at 50 μL/well, and the plate was left standing at room temperature for 1 hour. This plate was washed five times with Tween 20-PBS, and TMB (manufactured by Sigma-Aldrich Co. LLC) was added thereto at 50 μL/well and reacted. At an appropriate point in time, the reaction was terminated by the addition of 1 N hydrochloric acid (manufactured by Wako Pure Chemical Industries Ltd.) at 50 μL/well. The absorbance at a sample wavelength of 450 nm and a reference wavelength of 570 nm (450 nm-570 nm) was measured using a plate reader.

B1: anti-human Gas6 mouse-rat chimeric antibody KM5321-rKG1 (antibody, V domains shown)
VH: QIQLVQSGPELKKPGETVKISCRASGYTFTNYGMNWVKQAPGKGLKWMGWINTNTGEPTYTEEFKGRFAFSLETSATTAYLQINDLKNEDTATYFCARDEGWFVYWGQGTLITVSA
VL: ETTVTQSPASLSVATGEKVTIRCITSTDIDDDMNWYQQKPGEPPKLLISEGNTLRPGVPSRFSSSGYGTDFVFTIENTLSEDVADYYCLQTDSVPLTFGAGTKLELK
notes: 96 and 98 are not tied in words; also called KM5321-rKG1 antibody
binding result [1]: no binding

B2: CNTO antibody (anti-Gas6 monoclonal antibody WG1 of U.S. Pat. No. 7,547,767, remade) (antibody, V domains shown)
VH: QVQLVESGGGVVQPGRSLRLSCAASGFTFSSYGMHWVRQAPGKGLEWVAVIWYDGSNKYYADSVKGRFTISRDNSKNTLYLQMNSLRAEDTAMYFCAREGFYYDILTAYSLEYFQHWGQGTLVTVSS
VL: EIVLTQSPDFQSVTPKEKVTITCRASQSIGSSLHWYQQKPDQSPKLLIKYASQSFSGVPSRFSGSGSGTDFTLTINSLEAEDAAAYYCHQSSSLPYTFGQGTKLEIK
notes: Expressed from vector pKANTEX93 in CHO; also called CNT0300
binding result [2]: no binding (tested: 5 µg/mL) | antibody concentration at which binding activity was detected [3]: 0.04 µg/mL | binding activity at 5 µg/mL against the largest activity of KM5320-mKG1 and KM5321-mKG1 [3]: < 0.5 fold

B3: anti-human Gas6 mouse-rat chimeric antibody KM5320-rKG1 (antibody, V domains shown)
VH: QIQLVQSGPELKKPGETVKISCKASGYTFTNYGMNWVKQAPGKGLKWMGWINTETGEPTYSDDFKGRFAFSLETSATTAYLQINNLRNEDMATYFCAREDGYYGTLDYWGQGTSVTVSS
VL: SIVMTQTPKFLLVSAGDRVTITCKASQSVSNDVAWYQQKPGQSPKVLIYYASNRYTGVPDRFTGSGYGTDFTFTISTVQAEDLAVYFCQQDYSSPWTFGGGTKLEIK
notes: 92 and 94 are not tied in words; also called KM5320-rKG1 antibody
binding result [1]: no binding
